The target in the assay is mCherry-PEX5(TPR) (human) (UniProt P50542). The assay is described as follows: FRET or BRET; flowFRET competition in living pex5-/- MEF; mCherry-PEX5(TPR) as acceptor, EGFP-PTS1(SCP2) as donor, Cerulean-tagged protein as competitor; apparent KD1^app and KD2^app by fitting, plotted as Log10(KD2^app)/Log10(KD1^app).

As for Cerulean-PTS1(SCP2) (peptide), the Log10(KD2^app)/Log10(KD1^app) against the donor EGFP-PTS1(SCP2) worked out at 1.

The record behind these values is publication PMC9669585.
